According to publication PMC12311110, “Mapping of endosomal proximity proteomes reveals Retromer as a hub for RAB GTPase regulation” (Nature Communications, 2025):

Target: mVps29 (mouse (printed as mVps29), UniProt Q9QZ88 1-182)
Experiment: crystal structure; hanging drop, 20 °C; 0.1 M Tris-HCl pH 8.5, 0.2 M MgCl2, 30% PEG4000; 3-fold molar excess of peptide over mVps29
Conditions: both partners purified

binding result: binds
B1: human DENND4C peptide 1189-1206 (peptide)
peptide: AKVVQREDVETGLDPLSL
notes: also called hDENND4C_(1189-1206); DENND4C PL motif-containing peptide; source: synthetic peptide
